± gives the uncertainty stated by the source.
B1: Tripartite motif-containing protein 6, residues 93 to 134; numbered along this chain, Q9C030 (parent)
chain: KAVLCADHGEKLQLFCQEDGKVICWLCERSQEHRGHHTFLVE

Variants of: B1
Assay: abundance fitness (aPCA) (normalised: wild type 0, dead -1); higher = more abundant; growth selection in yeast, the domain comes from the species named
Conditions: Homo sapiens

Variant	abundance fitness
L14N	-0.153 ± 0.073
L14C	-0.198 ± 0.072
L14A	-0.186 ± 0.059
L14V	-0.154 ± 0.056
L14I	0.001 ± 0.21
L14E	-0.195 ± 0.081
L14K	0.065 ± 0.068
L14M	0.071 ± 0.12
L14P	-0.151 ± 0.1
L14G	-0.082 ± 0.049
L14W	0.218 ± 0.054
L14F	-0.064 ± 0.093
L14T	-0.087 ± 0.074
L14R	0.106 ± 0.055
L14D	-0.087 ± 0.072
L14H	0.122 ± 0.084
K11V	-0.055 ± 0.2
K11S	0.155 ± 0.064
K11F	-0.113 ± 0.12
K11N	-0.007 ± 0.08
K11G	-0.012 ± 0.16
K11T	-0.101 ± 0.18
K11I	-0.073 ± 0.089
K11L	-0.2 ± 0.18

Variant	abundance fitness
K11R	-0.042 ± 0.062
K11W	0.339 ± 0.15
K11D	0.142 ± 0.074
K11P	0.315 ± 0.24
K11A	0.029 ± 0.1
K11E	0.103 ± 0.092
K11Q	-0.3 ± 0.26
F15T	-0.292 ± 0.056
F15K	0.044 ± 0.067
F15N	-0.418 ± 0.1
F15E	-0.126 ± 0.046
F15P	-0.209 ± 0.062
F15Q	0.082 ± 0.061
F15C	0.001 ± 0.078
F15S	-0.212 ± 0.059
F15A	-0.248 ± 0.046
F15G	-0.087 ± 0.041
F15R	-0.112 ± 0.044
F15D	-0.329 ± 0.33
F15L	-0.222 ± 0.051
F15M	-0.029 ± 0.055
Q17I	0.376 ± 0.25
Q17G	-0.341 ± 0.046
Q17M	-0.605 ± 0.18

Variant	abundance fitness
Q17K	0.248 ± 0.1
Q17V	-0.373 ± 0.092
Q17S	-0.316 ± 0.1
Q17E	0.053 ± 0.051
Q17L	-0.364 ± 0.086
Q17H	-0.235 ± 0.14
Q17F	-0.512 ± 0.15
Q17C	-0.024 ± 0.063
Q17Y	-0.406 ± 0.11
Q17W	-0.335 ± 0.092
Q17T	-0.086 ± 0.07
Q17P	-0.297 ± 0.11
Q17R	-0.043 ± 0.05
Q17A	-0.109 ± 0.053
C16H	-0.337 ± 0.078
C16S	-0.286 ± 0.048
C16M	-0.584 ± 0.075
C16T	-0.747 ± 0.087
C16W	-0.802 ± 0.083
C16K	-0.275 ± 0.063
C16N	-0.298 ± 0.061
C16R	-0.354 ± 0.042
C16V	-0.451 ± 0.051
C16G	-0.304 ± 0.038

Variant	abundance fitness
C16A	-0.284 ± 0.042
C16E	-0.174 ± 0.05
C16D	-0.218 ± 0.055
G9W	-0.301 ± 0.049
G9T	-0.407 ± 0.083
G9N	0.332 ± 0.38
G9E	-0.179 ± 0.044
G9L	-0.238 ± 0.038
G9D	-0.087 ± 0.14
G9R	-0.066 ± 0.039
G9V	-0.575 ± 0.054
G9A	-0.061 ± 0.037
G9Q	-0.032 ± 0.048
G9C	-0.237 ± 0.27
G9M	-0.162 ± 0.052
G9H	-0.287 ± 0.21
G9S	-0.042 ± 0.061
L12N	0.381 ± 0.14
L12S	0.202 ± 0.058
L12M	0.195 ± 0.075
L12R	0.05 ± 0.041
L12C	0.092 ± 0.077
L12V	-0.06 ± 0.05
L12P	0.151 ± 0.059

Variant	abundance fitness
L12T	-0.084 ± 0.061
L12A	0.204 ± 0.048
L12I	-0.231 ± 0.16
L12K	-0.004 ± 0.086
L12G	0.117 ± 0.039
L12Q	-0.008 ± 0.058
L12F	-0.11 ± 0.13
L12E	-0.109 ± 0.053
Q13A	0.004 ± 0.052
Q13R	-0.135 ± 0.047
Q13M	-0.274 ± 0.17
Q13G	-0.071 ± 0.045
Q13D	-0.109 ± 0.33
Q13P	-0.256 ± 0.048
Q13S	0.058 ± 0.045
Q13N	0.21 ± 0.2
Q13T	0.124 ± 0.054
Q13V	-0.148 ± 0.053
Q13I	-0.086 ± 0.22
Q13K	0.128 ± 0.11
Q13Y	-0.217 ± 0.17
Q13E	0.142 ± 0.062
K21C	-0.402 ± 0.38
K21A	-0.099 ± 0.078

Variant	abundance fitness
H8W	-1 ± 0.093
H8Q	-0.275 ± 0.08
H8S	-0.901 ± 0.12
H8V	-0.852 ± 0.082
H8T	-0.69 ± 0.087
H8R	-0.77 ± 0.062
D19R	-0.584 ± 0.092
D19A	-0.807 ± 0.35
D19G	-0.757 ± 0.19
D19H	-0.289 ± 0.12
D19C	0.627 ± 0.2
D19S	-0.391 ± 0.3
D19I	-0.888 ± 0.31
E10A	-0.185 ± 0.15
E10H	-0.442 ± 0.31
E10Q	-0.1 ± 0.059
E10W	-0.406 ± 0.048
E10F	-0.01 ± 0.077
E10R	-0.019 ± 0.058
E10Y	-0.031 ± 0.068
E10S	-0.319 ± 0.069
E10C	-0.163 ± 0.1
E10G	-0.165 ± 0.041
E10D	-0.075 ± 0.16

Variant	abundance fitness
E18W	-0.537 ± 0.13
E18Q	-0.146 ± 0.11
E18I	-0.364 ± 0.29
E18A	-0.428 ± 0.083
E18V	-0.261 ± 0.084
E18T	-0.038 ± 0.12
E18L	-1 ± 0.26
E18H	-0.265 ± 0.29
E18K	-0.349 ± 0.12
E18G	-0.434 ± 0.18
E18R	-0.302 ± 0.068
G20S	-0.331 ± 0.17
G20E	0.103 ± 0.087
G20D	0.202 ± 0.065
G20P	-0.338 ± 0.36
G20R	-0.111 ± 0.075
G20A	-0.036 ± 0.064
G20L	0.117 ± 0.48
G20Q	-0.053 ± 0.084
G20V	-0.431 ± 0.11
G20T	-0.142 ± 0.098
G20H	-0.225 ± 0.12
G20K	-0.284 ± 0.41

Source: the Human Domainome abundance scans (Beltran et al. 2025)
